Data taken from patent US7794710.

Target: human B7-H1 (hB7-H1) on the cell surface (human) (UniProt Q9NZQ7)
Test: cell-based or functional assay

Sequence of UniProt Q9NZQ7 (Q9NZQ7 19-290 limits assumed): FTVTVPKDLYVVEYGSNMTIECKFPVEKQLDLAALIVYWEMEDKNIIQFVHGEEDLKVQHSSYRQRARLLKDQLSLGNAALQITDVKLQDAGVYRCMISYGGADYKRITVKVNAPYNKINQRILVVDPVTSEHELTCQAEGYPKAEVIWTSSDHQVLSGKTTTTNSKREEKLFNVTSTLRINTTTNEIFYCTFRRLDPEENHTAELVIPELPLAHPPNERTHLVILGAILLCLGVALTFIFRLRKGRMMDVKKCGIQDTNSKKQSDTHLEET

Substance: 5H1 mAb specific for hB7-H1 (antibody)
- inhibition of apoptosis of M15 CTL cultured with B7-H1/624mel cells: > 50%
